According to the DeepSol protein solubility set:

Experiment: soluble on expression in E. coli; label from the status in PepcDB or PDB records

Soluble on expression in E. coli, not soluble:
MGSDKIHHHHHHMSKHQNDNPRVPHEAAPLRVLHVGPGQGQRGGIASVLAELSAQRARFRDAGVVVAIFETHGFQSMRSLLCFPLVDIPRFLFAVLKGVDLIHFHVSVRGSFYRKFLLYLLARLFGKRTIFHLHAGNFQDFWASNGPTTRKAVSRFIRGADAVVAVSSAIASELQGHQGVTRNLYVIGNTAYSAELAAGAALRDSSGGKRVDMTPYVAFAGRFTEGKGLDELLRAVAALNRRGLKVQLRLAGAGDMDRWTRAAIEYGVSDQVRFVGWLQGDAKLEFYRDAAVFCMPSHFEAFGISTLEAMFIGRPVIGTRVGGFLDLVEEGVTGYLVRCGDSHGLAERIRHLVERPELAHEMGRQAVSRALSRYSVDAIVSQYARCYRQVNGSRGA, MGSDKIHHHHHHMSKIDELVFTPKQQDTITFPFQNVTLEVNEGTPRSGKTTADIFKMAYIYSISEDQNHLVTAYNQEQAFRLFMDGDGFGLMHIFGNLAEMKHDEHGDHLLIHSPNGPKKIYYKGGGKINSVGAITGMSLGTVTFLEINLLHKDFIEECFRRTFAAKNRFHLAELNPPAPNHPVLEIFSQYEKSGRYKWRHWTAKDNPALSDERKQEIYNEVKHSAYLLQRDWYGKRVLPAGIIYETFDVEANQIKKMQGHPIEMVFFGDGGQQDATVCECYVITEHEAEGGYTYNLNQVATYYHSGRDTGQVKAGSTYAIEIKQFIQWCMKEYEVPVNEPVFIDPACRWLREELEKVGVDTAGADNNAHDVTGKAQGIEVGIERMQSLLSERRYLLVEQPNDQYDHYSWLQEIGMYVRDENSGKPVDKNNHAMDTSRYATNYFYRNYEDI, MGSDKIHHHHHHMSKIKVALLVDEYFGGAKTKYGGYGFLARHLVAKHLPDDQVDVDVLLKKDCGKVRLWPKCFMVDGIRVYKLAARAFDWVNNLFLRQKNYDVFLSIEMTTHSYRIFSKAPGKNKKLLFWIQDPRPTYEWDEIQTVKLFPEPSYWDAEIYDFVNQYARSGNVRFISQAKCLDQKARDLYRLPANTSINYLPNPIEIDETFDLDSFPKQNSIIFLGRIESVKRGWLFAEIAKAMPQCQFYMLGQAHRQADENNAVMSGYQAIPNLHFVGHVEGEQKNRFLKEAKVLVNTSIHEALPISFLEALSYGTLLVSCQNPDELASKFGVYTGKVLGDGFDKVELFVAGINQLLTNDDHRHQLAKDAIAYIKEVHSLSRFTGDIKHELLTLCASRNEPVKATGRTTTSTVQ, MGSDKIHHHHHHMSKPLNFVMISPHFPANFETFAVRLKECGFNTLGIADTPYEQLSENLRNSLTEYYRVDNMEDYEQVYRAVGYFAHKYGRIDRIESHNEYWLELDAKLRTDFNVPGYKNDDMLAIKTKAQMKEIFRQAGLKVAQGKVFNSDDEARKLAKKLKFPVIIKPNSGVGASDTYKIKSVQELEDFFSYKNAHVEYIMEEFIDGDIITFDGLTDKEGNIVFYSGLEYSECVLDTVENDNDMFYYVPREISTDLIKLGQKCVDAFNVRERFFHFEFFRVKKTGDLMPLEINCRPPGGLTIDMWNYANDFDVFREYANIVKENKFYTNITHPWNVVYISRKANKNYVNAIEDVQQKYSTNIISVQTVPGVFAKIMGEHGILARTETLDQMHEIAQFAQQKA, MGSDKIHHHHHHMSKPSRWPLTADGIRFITPHVLVKRLQNHALAKGLFVTAMGYYPTASGHAMERKGHPDHILIYCTAGSGFLTMAGKTTEINSGDIFYLPAGSQHSYQASKELPWTLYWLHFDGTLANDFCQHINIVERKFTIGVQPRVIRVFDGISHLRHSSHNLAEFIQGGHQVQALLSYIALLVQQRKPSAINTFDTENLRAMMQEHIHSKLDLDSLAEAAKLSKYHFSKKFKQVTGESPISYFINMKMQRACYLLDSTPRSVKHVASELGYHDTYYFSRLFKKNIGMAPAIYRKAKL, MGSDKIHHHHHHMSKVFIIGLPRTGTTSISVALLEMGLSVAHTAFTKKAFEMADAVTDAPCFSDYMHLDRIFPHAKFIYLTREMAKWVPSIIMLLEKMAPHLDPKTGKFNPILKRSFHHTFPGTLPLTENELIDCYTRHEQAVLSYFEGRDDFLSIDISKQGSLLEMKMFLGIEAQGSADFPKLNVGRDVASWKDYKHPNKINSNLAGVEHRKYYDYALVDYRTY, MGSDKIHHHHHHMSLAQFQSVECADCPIRHRAVCARCDADELEALDAIKFYRSYEAGQTVVWSGDQMNFVGSVVSGIATLTQTMEDGRTQMVGLLLPSDFVGRPGREGSAYDVVATTDVIMCCFRKKPFEDLMVRTPHIAHRLLEMTLDELDAAREWMLVLGRKTAREKIASLLSIIARRDASLAVDPSNGAVSFDLKLTREAMADYLGLTLETVSRQISALKKAGVIQLEGKRHVTVPDMHRLIEEAGDDSDGGVLG, MGSDKIHHHHHHMSLEGLSINFATVRQGGNFGAIVDACLAHGITAISPWREQVHGVGLAEAARIVEQNGLRLSGHCRGGFFPAIDADGRRRAIEDNKRAVDEAAAMKADCLVLVVGGLPAGSRDLKGARQMVEDGMAKLLPYARAAGVPLAIEPLHPFYAAERACFNTLKQSLDLCDRLGAGTGVAIDVYHVWWDPELEEQVARAGRNGQILAHHICDWLVPTTDPLNDRGMMGDGVIDLKAFRAMIEAAGFHGPQEVEIFSHRWQARPMDEVLATVVERFKTVC, MGSDKIHHHHHHMSLFNLSLVTFEIDHEDCWSKLTSSFPVQVKTIFAKPSKGKDYILGMDEVKTYNRRVFKDFLKSFKKEKSIYEIIQILELDSRRGIYRILFKERYENMIMSIIENYMTLYIKDLIKEGNERLLLIMPSSDVTMLKRDLESIGKIHYFNAKLVNFNDFVPTFFDFSEQERNAVLHAIRLGYYEYPRRINLEELGKIMGISKPTLEEYLRKAEKKIMSKIFREFYQQDLLFHSPDY, MGSDKIHHHHHHMSLNLRDLEYFYQLSKLRSFTNVAKHFRVSQPTISYAIKRLETYYDCDLFYKDSSHQVVDLTPEGELLAMRTNEILSELNHTKKAIHRSSMKDFKVGFPPIISSYLLSKQDNLNFFNALHMIYGGSNELLSLLLNEEIDSSLLGSLEKIKHPQLEIEELFQKEFFIIMSDSHPLANEKELGFKDLLNEDFILLGEHNIHFNAFNRLNEKYNQSANVVLKLDDAHTIKELVRKNLGISLMADIRLSEDFKNLVKVPFIEEDKQFFHINYAYQKNSILSESEKNFLEILKTLK, MGSDKIHHHHHHMSLSAEQIVEYRAFAEQLADAAAAAIAPYFRASLDVEDKGGRLYDPVTVADKAAEDAMRELIQARYPEHGILGEEAGIAVGSSPLTWVLDPIDGTRAFITGLPLWGTLIALNDGARPVLGVMNQPFTGERFVGTPAGAWRSGTPLKTRACADLSAATLMCTTPDMFDTAERKAAFEAVAGKARLMRYGGDCYAYCMLASGFVDVIVEASLQPYDVQALMPIIEGAGGVITAWDGSSAQDGGCVVACGDPVLHAQVLEMLRHAM, MGSDKIHHHHHHMSMVSSGNYAEVEKVLTEYPYIAELADHLRDQKMKVIENLDSYVSLTIKNVERLGGHAYLAKDKEEARKIAGDLVGDNKTVVFSKTNVAYEIGLREYLESKHNEVWETDLGEYLIQISKGWPTHIVAPALGMTREDAAKAVKKIDPSINENSTIEDVVAAVRKFLMSKYVKADVGITGANAVAADSGAIALVENEGNIRIDTVMPQTHISITGIDKIVPTLRDALDEVMVQSAYAGLFPPTYINVTAGPSSTADIELRRVSPATGPKNFHLILLDDGRMDASKDEGLKEALLCIKCGRCYFSCPIYRVLGKEWVSTKSPYNGPTGVMWNYITNKDPWPASYCVHSGGCKEVCPMRINIPEVIKYIKYLGSKSL, MGSDKIHHHHHHMSNDIDLIKRLGPSAMDQIMLYLAFSAMRTSGHRHGAFLDAAATAAKCAIYMTYLEQGQNLRMTGHLHHLEPKRVKIIVEEVRQALMEGKLLKTLGSQEPRYLIQFPYVWMEQYPWIPGRSRIPGTSLTSEEKRQIEHKLPSNLPDAQLVTSFEFLELIEFLHKRSQEDLPPEHRMELSEALAEHIKRRLLYSGTVTRIDSPWGMPFYALTRPFYAPADDQERTYIMVEDTARYFRMMKDWAEKRPNAMRALEELDVPPERWDEAMQELDEIIRTWADKYHQVGGIPMILQMVFGRKED, MGSDKIHHHHHHMSNGGRLVSQLEAEGSTHLTLPIHKKSLSSLWQIRPLRQLIEEHQPDIVHVRSRVPAWLTHFALRKIPANKRPHLISTVHGFYSVNRYSAIMTQAEKVIAVSDSVVKYITDHYKNCPPQDIVRIYRGIDPAAFPHNYQPSAQWFNQVFNDFPELENKFLLCLPGRITRLKGHESLIELMQQLHSQYPQLHAVIVGGADVKKQAYLSELQNTIQSKGLADKITFVGHRSDIREWLAFSDIVLSLSNQAETFGRTALEALSVGTPVIGWNRGGVAEILSHVYPQGLVEAENEKALLETVKHHIEQPQTVAPVTMFSLKDMCDQTLELYQSVLN, MGSDKIHHHHHHMSNSSIKSKTALLRNGETQKGNGYPEANDYSARILETMQTGVVFFNTEQIISGINNLACEDLQIPRDPSGHKITDIISIIHQEKDIFPELIARLKSSETDMEKLPIDTLIRSLETKVQFFASGCIMQLETGRYLLAFRNTMDEVTHEHLLSMILARTKIFPWFFDLKRNKMLIDAHWFSYLGIPAGDCEITIEKFFSRVHPNERDMLADALQKQLSEKEIPDSFSYRLQRGDGSWEWFSEQSMYLSKTNDGSPYRIVGVCHSIQEHKNTEDKLRAARNKAQESDRLKSAFLANMSHEIRTPLNAIVGFSNLIAGGIVDLDTEEARDYSALISKNCNYLLTLVSDVLDLSCIESDTMTFKFTVYPLTRLLTEIYQKYENRIPQEVQFNLLLPTDNVEIETDAVRLRQVIEHLLDNAAKFTVKGHIDIGYALSDHGEKIYVFVADTGCGIPSDQYKKVFERFYKINSFVQGAGLGLSVCKTIVEGLGGTINVYSQLKEGSRFSVILPLNRLHK, MGSDKIHHHHHHMSNVTAEQKKEVKGRGFLPSRDGEHFAARIITVNGVINASQAKKIAEAAEKFGNGQLAFTTRLTVELPGVKFEDIEALSEFIASENLITGGTGSRVRPVVACKGTVCVHGLADTQALAAEIHEEFYKNWYDVKLPHKFKIGVGGCPNNCIKPDLNDLGIVGQRVPDYDSELCVGCKKCAVVEVCPVKAAKLTDKGKLEIDSNLCNNCGKCIESCNFDSIEEKESGYKVYIGGKWGKSVRPGTQIDRLFSKEELMTLIEKAILLFREQGNTGERFGITIDRIGADKFIEMLLSDEVLERKEEILEALLHLTGGAVC, MGSDKIHHHHHHMSPRCSTCGMGQLCLPVGMNQQDLQKMDTLVQERVRVHKGETLYRMGDPLTAVYAIRFGTLKTHVTTEDGRSQITGFHLPGEVVGLDGLGEMQHASDATALEDTEVCVVRLSDLQSLSMDLPSLQQQFLRLMGKEISNDQLMLVTLGSMRAEERLAAFLINLSERLSARGYSSTEFVMRMSREEIGSYLGLKLETVSRLFSRFAEAGLIQIRQRHVKLVDMAGIKQVYSRSC, MGSDKIHHHHHHMSRDAPIKADKDYSQILKEEFPKIDSLAQNDCNSALDQLLVLEKKTRQASDLASSKEVLAKIVDLLASRNKWDDLNEQLTLLSKKHGQLKLSIQYMIQKVMEYLKSSKSLDLNTRISVIETIRVVTENKIFVEVERARVTKDLVEIKKEEGKIDEAADILCELQVETYGSMEMSEKIQFILEQMELSILKGDYSQATVLSRKILKKTFKNPKYESLKLEYYNLLVKISLHKREYLEVAQYLQEIYQTDAIKSDEAKWKPVLSHIVYFLVLSPYGNLQNDLIHKIQNDNNLKKLESQESLVKLFTTNELMRWPIVQKTYEPVLNEDDLAFGGEANKHHWEDLQKRVIEHNLRVISEYYSRITLLRLNELLDLTESQTETYISDLVNQGIIYAKVNRPAKIVNFEKPKNSSQLLNEWSHNVDELLEHIETIGHLITKEEIMHGLQAK
